Experimental data as given in the nanobody polyreactivity screen of Harvey et al. (2022).

Experiment: yeast display, Sf9 membrane polyspecificity reagent, FACS + sequencing; frameworks hold sequencing errors
Procedure, shortened: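 Polyreactivity labels are assigned by the sorting gate from which each nanobody was recovered. The gates were low and high (top ~1%), set on anti-HA fluorescence for expression and streptavidin fluorescence for reagent binding. Before sorting, galactose-induced (36–48 hours) yeast display cells were stained for 1 hour at 4 °C with 10% biotinylated, detergent-solubilized Sf9 membrane reagent.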

| Sequence | polyreactivity (PSR sort gate) |
| --- | --- |
| QVQLVESGGGLVQAGGSLRLSCAASGRIFVSNAMGWYRQAPGKERELVAAISKSGGRTYYADSVKGRFTISRDNAKNTVYLQMNSLKPEDTAVYYCAARSRVSPRYDYWGQGTQVTVSS | high polyreactivity |
| QVQLVESGGGLVQAGGSLRLSCAASGRIFVSNAMGWYRQAPGKERELVAGINSGDRTYYADSVKGRFTISRDNAKNTVYLQMNSLNPEDTAVYYFADSSRRGTGLRYYWGQGTQVTVSS | high polyreactivity |
| QVQLVESGGGLVQAGGSLRLSCAASGRIFVSYAMGWYRQAPGKERELVADMSWSGSITYYADSVKGRFTISRDNAKNTVYLQMNSLKPEDTAVYYCAKKSIYDYSTTYPEYDYWGQGTQVTVSS | low polyreactivity |
| QVQLVESGGGLVQAGGSLRLSCAASGRIFVTNAMGWYRQAPGKERELVAAISTGGSTNYADSVKGRFTISRDNAKNTVYVQRNSLKPEDTAVYYCNRGSRYSHKYDYWGQGTQVTVSP | high polyreactivity |
| QVQLVESGGGLVQAGGSLRLSCAASGRIFVTNAMGWYRQAPGKERELVAAISYRGGRTYYADSVKGRFTISRDNAKNTVYLQMNSLKPEDTAVYYCNAVTRGPFDYWGQGTQVTVSS | high polyreactivity |
| QVQLVESGGGLVQAGGSLRLSCAASGRIFVTYVMGWYRPAPGKERELVAAISRRGGTTYYADSVKGRFTISRDNAKNTVYLQMNSLKPEDTAVYYCNVARHYAVESGYWGQGTQVTVSS | high polyreactivity |
| QVQLVESGGGLVQAGGSLRLSCAASGRIFVVYAMGWYRQAPGKERELVAAIRSGGSTNYADSVKGRFTISRDNAKNTVYLQMNSLKPEDTAVYYCADCKWHSAYDYWGQGTQVTVSS | high polyreactivity |
| QVQLVESGGGLVQAGGSLRLSCAASGRIFVVYAMGWYRQAPGKERELVATITSGGSTYYADSVKGRFTISRDNAKNTVYLQMNSLKPEDTAVYYCAAYAYIFLDWGGYPYYLYEYDYWGQGTQVTVSS | low polyreactivity |
| QVQLVESGGGLVQAGGSLRLSCAASGRIFVVYVMGWYRQAPGKERELVAAISYSTGSTYYADSVKGRFTISRDNAKNTVYLQMKSLKPEDTAVYYCAVAAARKSFVSRYYYWGQGTQVTVSS | low polyreactivity |
| QVQLVESGGGLVQAGGSLRLSCAASGRIFVYNAMGWYRQAPGKERELVATISSGGSTNYADSVKGRFTISRDNAKNTVYLQMNSLKPEDTAVYYCAARFYVSNSRISARNYWGQGTQVTVSS | high polyreactivity |
| QVQLVESGGGLVQAGGSLRLSCAASGRIFVYNTMGWYRQAPGKERELVAAMSWSGVGTYYADSVKGRFTISRDKAKNTVYLQMNSLKPEDTAVYYCNAWIYYGYFIFDYWGQGTQVTVSS | high polyreactivity |
| QVQLVESGGGLVQAGGSLRLSCAASGRIFVYYAMGWYRQAPGQEREFVATISSTGGSTYYADSVKGRFTISRDNAKNTVYLQMNSLKPEDTAVYYCAVRGWYPGVRYDYWGQGTQVTVSS | low polyreactivity |
| QVQLVESGGGLVQAGGSLRLSCAASGRIFVYYVMGWYRQAPGKERELVASITFRGSRTYYADSVKGRFTISRDNAKNTVYLQMNSLKTEETAGYYCNADVWASGSRGEGYWGQGSQVTVSS | low polyreactivity |
| QVQLVESGGGLVQAGGSLRLSCAASGRIFWANAMGWYRQAPGKERELVAAISYSGVSTYYADSVKGRFTISRDNAKNTVYLQMNSLKPADTAVYYCAADRYRKYYYWGQGTQVTVSS | high polyreactivity |
| QVQLVESGGGLVQAGGSLRLSCAASGRIFWAYAMGWYRQAPGKERELVAVITIGGRTNYADSVKGRFTISRDNAKNTVYLQMNSLKPEDTAVYYCAAERHIITWPYSRYYYWGQGTQVTVSS | high polyreactivity |
| QVQLVESGGGLVQAGGSLRLSCAASGRIFWFYTMGWNRQAPGKERELVARITTSGGSTYYADSVKGRFTISRDNAKNTVYLQMNSLKPEDTAVYYCAARPRDYHSFSLDYYYWGQGTQVTVSS | high polyreactivity |
| QVQLVESGGGLVQAGGSLRLSCAASGRIFWGYAMGWYRQAPGKERELVAGITSGGITNYADSVKGRFTISRDNAKNTVYLQMNSLKPEDTAVYYCNKDFWGYPRVRYYYWGQGTQVNVSS | high polyreactivity |
| QVQLVESGGGLVQAGGSLRLSCAASGRIFWHNAMGWYRQAPGKERELVAAITGGGSTYYADSVKGRFTISRDNAKNTVYLQMNSLKPEDTAVYYCATLGSLRYYWPGYDYWGQGTQGTVSS | high polyreactivity |
| QVQLVESGGGLVQAGGSLRLSCAASGRIFWINAMGWYRQAPGKERELVAAISWRGDSTYYADSVKGRFTISRDNAKNTVYLQMNSLKPEDTAVYYCAAETRYLYDYWGQGSQVTVSS | high polyreactivity |
| QVQLVESGGGLVQAGGSLRLSCAASGRIFWKYTMGWYRQAPGKERELVAAIRSGGGSTYYADSVKGRFTISRDNAKNTVYLQLNSLKPEDTAFYYCAAEPSQRYPWSGYDYWGQGTQVTVSS | low polyreactivity |
| QVQLVESGGGLVQAGGSLRLSCAASGRIFWNYAMGGYRQAPGKERELVASINWSGGSTYYADSVKGRFTISRDNAKNTVYLQMNSLKPEDTAVYYCNKDGRVYLDHDYWGQGTQVTVSS | low polyreactivity |
| QVQLVESGGGLVQAGGSLRLSCAASGRIFWNYAMGWYRQAPGKERELVAGISSSDGSTYYADSVKGRFTISRDNAKNTVYFQMNSLKPEDTAVYYCAVDKGGRYHVENYYWGQGTQVTVSS | low polyreactivity |

| Sequence | polyreactivity (PSR sort gate) |
| --- | --- |
| QVQLVESGGGLVQAGGSLRLSCAASGRIFWPYAMGWYRQAPGKERELVAAISSSGGSTYYADSVKGRFTISRDNAKNTVYLQRNSLKPEDTAVYYCNAYSGLSYRYGYSYWGQGTQVTVSS | high polyreactivity |
| QVQLVESGGGLVQAGGSLRLSCAASGRIFWPYAMGWYRQAPGKERELVAAITSGGSTYYADSVKGRFTISRDNAKNTVYLQMNSLKPEDTAVYYCAKRSSGVSVPVAYGGIKRYNSWGQGTQVTVSS | low polyreactivity |
| QVQLVESGGGLVQAGGSLRLSCAASGRIFWQNAMGWYRQAPGKERELVAAISSRGGTTYYADSVKGRFTISRDNAKNTVYLQMNSLIPEDTAVYYCNAALLLRYRGFFTVAAYDYWGQGTQVTVSS | low polyreactivity |
| QVQLVESGGGLVQAGGSLRLSCAASGRIFWQNAMGWYRQAPGKERELVAAISSRGGTTYYADSVKGRFTISRDNAKNTVYLQMNSLKPEDTAVYYCNAALLLRYRGFFTVAAYDYWGLGTQVTVSS | low polyreactivity |
| QVQLVESGGGLVQAGGSLRLSCAASGRIFWRNTMGWYRQAPGKERELVAAITGSSTRTYYADSVKGRFTISRDNAKNTVYLQMNSLKPEDTAVYYCAARSYPYQVAAGYVTRFNYWGQGTQVTVSS | high polyreactivity |
| QVQLVESGGGLVQAGGSLRLSCAASGRIFWSNAMGWYRQAPGKEREFVAAISSSGGRTYYADSVKGRFTISRDNAKNTVYLQMNSLKPEDTAVYYCAASNGYQAVTYDYWGQGTQVTVSS | high polyreactivity |
| QVQLVESGGGLVQAGGSLRLSCAASGRIFWSYAMGWYRPAPGKERELVAAIRSGGTTDYADSVKGRFTISRDNAKNTVYLQMNSLKPEDTAVYYCNREYRGAINYIYYYWGQGTQVTVSS | low polyreactivity |
| QVQLVESGGGLVQAGGSLRLSCAASGRIFWVYAMGWYRQAPGKERELVAAIDWSDGITYYADSVKGRFTISRDNAKNTVYLQMNSRKPEDTAVYYCGAEYVIYQTYNYWGQGTQVTVSS | high polyreactivity |
| QVQLVESGGGLVQAGGSLRLSCAASGRIFWWYAMGWYRQAPGKERELVAVIDDSGGITYYADSVKGRFTISRDKANNTVYLQMNSLNPEDTAVYYCARNVNAQKVLGGFDSWGQGTQVTVSS | low polyreactivity |
| QVQLVESGGGLVQAGGSLRLSCAASGRIFWYYAMGWYRQAPGKDWELVATITYSGVRTYYADSVKGRFTISRDNAKNSVYLQMNSLKPEDTAVYYCAAVPGASVYGYYWKFGYWGQGTQLTVSS | high polyreactivity |
| QVQLVESGGGLVQAGGSLRLSCAASGRIFWYYAMGWYRQAPGKEREFVAAIDWSGGRTYYADSVKGRFTISRDNAKNTVYLQMNSLKPEDTAVYYCAARDRAGRGKSYKPYYYWGQGTQVTVSS | high polyreactivity |
| QVQLVESGGGLVQAGGSLRLSCAASGRIFWYYAMGWYRQAPGKERELVARISSSGGSTYYADSVKGRFTISRDNAKNTVYLQMNSLKPEDTAVYYCAAEHYILYDYLWAYDYWGQGTQVTVSS | high polyreactivity |
| QVQLVESGGGLVQAGGSLRLSCAASGRIFWYYDMGWYRQAPGKERELVAAISQRGGSTYYADSVKGRFTISRDNAKNTVYLQMKSLKPEDTAVYYCAKRNPYWATREYWGLGTQVTVSS | high polyreactivity |
| QVQLVESGGGLVQAGGSLRLSCAASGRIFWYYGMGWYRQAPGKERELVAAITSGGRTYYADSVKGRFTISRDNAKNTVYLQMNSLKPEDTAVYYCAKGYVRYPSKGYTFDYWGQGTQVTVSS | high polyreactivity |
| QVQLVESGGGLVQAGGSLRLSCAASGRIFWYYTMGWYRQAPGKERELVAAISNGGSTYYADSVKGRFTISRDNAKNPVYLQMNSLKPEDTAVYYCAADNFRNPDYYYWGQGTQVTVSS | high polyreactivity |
| QVQLVESGGGLVQAGGSLRLSCAASGRIFYAYAMGWYRQAPGKETELVAAITWRGGRTFYADSVKGRFTISRDNAKNTVYFQMNSLKPEDTAVYYCATRGAPYGMDYWGQGTQVTVSS | high polyreactivity |
| QVQLVESGGGLVQAGGSLRLSCAASGRIFYAYTIGWYRQAPGKERELVAAISGSGSTYYADSVKGRFTISRDNAKNTVYLQMNSLKPVDTAVYYCAADVTGGRKYDYWGQGTQVSVSS | low polyreactivity |
| QVQLVESGGGLVQAGGSLRLSCAASGRIFYDNTMGWYRQAPGKERELVATISSAASTNYADSVKGRFTISRDNAKNTVYLQMNSLKPEDTAVYYCAAEWSTYGYQVLPVDYDYWGQGTQVTVSS | low polyreactivity |
| QVQLVESGGGLVQAGGSLRLSCAASGRIFYDNTMGWYRQAPGKERELVAVISWSTGGTYADSVKGRFTISRDNAKNTVYLQMNSLKPEDTAVYYCATPLGYGPDLDYWGQGTQVTVSS | low polyreactivity |
| QVQLVESGGGLVQAGGSLRLSCAASGRIFYDYAMGWYRQAPGKEREFVAAIRWRGGSTYYADSVKGRFTISRDNAKNTVYLQMNSLKPEDTAVYYCATKSYYKFGYWGQGTQVTVSS | high polyreactivity |
| QVQLVESGGGLVQAGGSLRLSCAASGRIFYFNAMGWNRQAPGKERELVADISSGGRTNYADSVKGRFTISRDNAKNTVYLQMNSLKPEDTAVYYCNADPYTSSGGYRGYDFDYWGQGTQVTVSS | low polyreactivity |
